These results are taken from patent publication US20160194407A1 (AstraZeneca / MedImmune, published 2016).

A value given as a limit tells only on which side of the number the result lay.

For orientation: koff means the first-order rate constant of dissociation. As usually defined, the kon is the rate constant with which the complex forms. The Kd is the equilibrium constant for the complex coming apart.

In test [1] the target is T1, human CD73 K180A (human, UniProt P21589 27-553, K180A).
T1 sequence: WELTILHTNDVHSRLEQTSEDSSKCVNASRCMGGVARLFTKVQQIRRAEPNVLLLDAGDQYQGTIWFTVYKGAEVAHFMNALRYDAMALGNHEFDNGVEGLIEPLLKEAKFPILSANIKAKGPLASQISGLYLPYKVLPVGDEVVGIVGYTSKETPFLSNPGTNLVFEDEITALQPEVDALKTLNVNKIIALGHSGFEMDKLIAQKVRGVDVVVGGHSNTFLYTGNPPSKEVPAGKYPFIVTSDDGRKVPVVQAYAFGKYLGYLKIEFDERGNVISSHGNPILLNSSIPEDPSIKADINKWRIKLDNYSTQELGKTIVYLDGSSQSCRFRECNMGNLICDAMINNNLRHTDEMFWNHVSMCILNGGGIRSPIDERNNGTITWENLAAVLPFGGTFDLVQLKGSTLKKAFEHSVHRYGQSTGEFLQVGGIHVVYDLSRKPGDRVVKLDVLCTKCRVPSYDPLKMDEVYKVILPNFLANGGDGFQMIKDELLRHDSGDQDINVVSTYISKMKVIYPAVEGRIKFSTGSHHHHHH
Briefly: SPR ProteOn, His-tagged CD73 variant on HTG chip.

Test [2] concerns the target T2, human CD73 V144K + K180A (human, UniProt P21589 27-553).
T2 chain: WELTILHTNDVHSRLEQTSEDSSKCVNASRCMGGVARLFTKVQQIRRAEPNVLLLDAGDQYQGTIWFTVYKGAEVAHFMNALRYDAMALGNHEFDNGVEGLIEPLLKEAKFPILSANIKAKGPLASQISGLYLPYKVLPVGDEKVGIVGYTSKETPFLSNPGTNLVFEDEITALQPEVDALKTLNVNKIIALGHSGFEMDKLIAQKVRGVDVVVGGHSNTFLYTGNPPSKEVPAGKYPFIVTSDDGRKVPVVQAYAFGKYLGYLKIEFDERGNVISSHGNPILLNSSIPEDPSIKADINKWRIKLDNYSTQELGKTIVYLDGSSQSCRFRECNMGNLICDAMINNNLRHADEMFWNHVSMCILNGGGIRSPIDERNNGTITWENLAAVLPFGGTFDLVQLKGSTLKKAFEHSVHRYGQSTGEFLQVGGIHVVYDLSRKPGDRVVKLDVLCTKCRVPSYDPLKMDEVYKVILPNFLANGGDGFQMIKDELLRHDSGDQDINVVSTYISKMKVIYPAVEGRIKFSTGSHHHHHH
Briefly: SPR ProteOn, His-tagged CD73 variant on HTG chip.

For test [3], the target named is T3, CD73 chimera KO_Linker (human; chicken (Gallus gallus)).
T3 construct: Human limits converted from mature numbering (+26); also called KO_292-310; linker region-swapped CD73
T3 chain: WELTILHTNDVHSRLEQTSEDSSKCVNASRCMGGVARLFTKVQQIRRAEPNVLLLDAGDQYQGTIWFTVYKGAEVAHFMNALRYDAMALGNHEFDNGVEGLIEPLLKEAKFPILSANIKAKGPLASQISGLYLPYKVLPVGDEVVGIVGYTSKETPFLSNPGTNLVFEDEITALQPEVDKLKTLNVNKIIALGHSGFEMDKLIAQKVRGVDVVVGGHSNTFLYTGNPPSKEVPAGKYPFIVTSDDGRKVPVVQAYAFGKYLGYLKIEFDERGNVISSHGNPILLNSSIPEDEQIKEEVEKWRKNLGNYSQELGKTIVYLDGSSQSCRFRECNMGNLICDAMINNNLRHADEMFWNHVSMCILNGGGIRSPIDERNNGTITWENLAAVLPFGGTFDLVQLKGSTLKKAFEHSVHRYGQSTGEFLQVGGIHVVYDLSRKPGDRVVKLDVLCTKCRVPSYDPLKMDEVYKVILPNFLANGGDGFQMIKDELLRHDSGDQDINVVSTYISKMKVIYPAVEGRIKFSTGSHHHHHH
Briefly: SPR ProteOn, His-tagged CD73 variant on HTG chip.

Test [4] addresses T4, cynomolgus CD73 on cells (cynomolgus).
T4 construct: whole, on cells; also called native CD73 on MK-1 cells (cynomolgus)
Briefly: flow cytometry on MK-1 cells, one-site fit of median fluorescence.
Description: All flow cytometry experiments were run at 4 C and reagents were prepared in PBS/1% FBS buffer. 10,000 cells were incubated with test antibody in 50 uL volume for 4 hours. Cells were washed twice and incubated in 50 uL goat anti-human IgGFc-AlexaFluor647 conjugate for 15 minutes. Cells were washed, resuspended in buffer supplemented with Dapi, and analyzed on a flow cytometer. Dead cells, identified by high Dapi staining, were excluded from the analysis. For the determination of KD values, a plot of the median fluorescence intensity as a function of test antibody concentration was fitted nonlinearly using a one site binding isotherm model.

Test [5] concerns the target T5, cynomolgus CD73 extracellular domain (ECD) (cynomolgus).
T5 construct: extracellular domain; also called Cynomolgus CD73 ECD; cyno CD73 (SPR Proteon)
Briefly: SPR ProteOn, antibody captured by anti-human Fc, CD73 ECD in mobile phase, 1:1 model.

For test [6], the target named is T6, CD73 construct with chicken N- and C-terminal domain sequence and knocked-in human V144 and N185.
T6 construct: K180 is conserved between chicken and human; also called chicken CD73 replaced with V144 and N185; knock-in
T6 chain: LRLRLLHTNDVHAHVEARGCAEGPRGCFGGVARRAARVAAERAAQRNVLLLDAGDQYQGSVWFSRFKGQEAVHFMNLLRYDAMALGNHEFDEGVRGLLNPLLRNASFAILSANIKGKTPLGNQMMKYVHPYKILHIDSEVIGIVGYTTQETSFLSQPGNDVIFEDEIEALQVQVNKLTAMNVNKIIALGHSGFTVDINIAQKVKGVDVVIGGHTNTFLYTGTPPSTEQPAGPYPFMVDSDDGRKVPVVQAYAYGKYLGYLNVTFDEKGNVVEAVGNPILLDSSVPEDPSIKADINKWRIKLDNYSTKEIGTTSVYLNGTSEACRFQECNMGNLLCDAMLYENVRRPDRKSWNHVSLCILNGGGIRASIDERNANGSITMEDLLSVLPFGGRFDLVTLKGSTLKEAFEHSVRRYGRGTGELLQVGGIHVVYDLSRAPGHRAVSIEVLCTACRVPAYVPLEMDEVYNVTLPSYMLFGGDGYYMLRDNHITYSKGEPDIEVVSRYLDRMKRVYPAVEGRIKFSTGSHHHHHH
Briefly: SPR ProteOn, MEDI9447 dilutions from 5 nM to 0.3 nM.
Description: CD73 crude cell supernatant protein samples were diluted to 3 μg/ml in PBS, 0.005% Tween-20, pH 7.4 (BioRad) and immobilized to ˜400 RU on a HTG tris-NTA sensor chip (BioRad) pre-activated with 10 mM NiSO₄, 10 mM MES, pH 6.0 (BioRad). An equivalently diluted crude cell supernatant sample from non-transfected cells was included as a reference channel control. […] Antibody binding was measured at a flow rate of 100 μL/min with a 3 min association phase and 20 min dissociation phase. The sensor chip surface was regenerated between each run by an 800 s injection of 300 mM EDTA, pH 8.5 (BioRad) at a flow rate of 30 μL/min. Binding kinetics were analyzed using the ProteOn data analysis software. Double referencing was performed and, unless noted otherwise, a 1:1 Langmuir binding model was utilized to fit the data.

B1: MEDI9447 (antibody, V domains shown)
VH: EVQLLESGGGLVQPGGSLRLSCAASGFTFSSYAYSWVRQAPGKGLEWVSAISGSGGRTYYADSVKGRFTISRDNSKNTLYLQMNSLRAEDTAVYYCARLGYGRVDEWGRGTLVTVSS
VL: QSVLTQPPSASGTPGQRVTISCSGSLSNIGRNPVNWYQQLPGTAPKLLIYLDNLRLSGVPDRFSGSKSGTSASLAISGLQSEDEADYYCATWDDSHPGWTFGGGTKLTVL
notes: also called clone 10.3 antibody; 73combo3
For B1, the koff amounted to 0.000154 s⁻¹ in test [1], 0.00425 s⁻¹ in test [2] and 1.76e-05 s⁻¹ in test [5]. Further, the kon in test [1] amounted to 3.45e+06 M⁻¹ s⁻¹; in test [2] it was 1.58e+06 M⁻¹ s⁻¹; in test [3], 5.57e+06 M⁻¹ s⁻¹; in test [5] it was 2.71e+06 M⁻¹ s⁻¹. Also, the Kd came out at 0.084 nM in test [4] and 0.0065 nM in test [5]. Also, the “fold of the KD for wild-type CD73” value in test [6] was less than 20 fold.
